The values that follow are results of earlier work, collected in paper PMC7617445.

For this data set, the target named is IL-18 (Homo sapiens) (UniProt Q14116).
Sequence of IL-18 (Homo sapiens) (Q14116 37-193): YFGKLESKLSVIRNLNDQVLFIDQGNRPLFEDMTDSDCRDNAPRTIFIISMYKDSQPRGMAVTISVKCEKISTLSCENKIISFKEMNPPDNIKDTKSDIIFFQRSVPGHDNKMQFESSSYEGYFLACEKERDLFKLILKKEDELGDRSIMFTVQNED

Sequence of IL-18BP (O95998 31-194): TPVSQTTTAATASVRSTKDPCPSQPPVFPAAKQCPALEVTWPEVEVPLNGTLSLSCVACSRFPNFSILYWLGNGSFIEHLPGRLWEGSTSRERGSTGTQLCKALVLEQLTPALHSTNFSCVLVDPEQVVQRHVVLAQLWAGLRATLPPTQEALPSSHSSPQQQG

Usually Kd stands for the concentration at which binding is half-saturated. In the case of IL-18BP (from UniProt O95998), the Kd is 0.1 nM.
